Assay results from the supplement of paper PMC6757056.
± gives the standard deviation of the averaged measurements.

B1: library; a variant is named by its letters at N, in order (parent)
chain: GCUGUCACCGGUGUAUUACCCUAGUGGUCGACCGGUCUGAUGAGUCUNNNNNNAGACGAAACAGC

What was measured:
hypoxanthine [1] = variants of: B1; test: FACS-Seq fitted mean relative fluorescence mCherry/BFP without ligand (log10 relative fluorescence); ligand: hypoxanthine (xanthine aptamer); higher = higher reporter protein expression; conditions: HEK293T, ligand present: no
How it was run: (§1)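 Genomic DNA from 6 mCherry/BFP sort bins was PCR-amplified, barcoded and sequenced on MiSeq. The sorted cells were enriched HEK293T libraries, lentivirally transduced with a ribozyme-switch mCherry reporter and an EF1α-BFP marker, incubated with or without ligand for 48 h. Fluorescence derives from a normal fit to the bin counts. The fit was on log10(mCherry/BFP), and means were scaled to five spiked-in control ribozymes.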

hypoxanthine [2] = variants of: B1; test: normalized RNA/DNA level with ligand (relative to sTRSVctl = 100) (log10 (% of sTRSVctl)); ligand: hypoxanthine (xanthine aptamer); higher = less ribozyme self-cleavage, higher mRNA level; conditions: ligand concentration (+) RNA-Seq: 5 mM, HEK293T, reporter: mCherry (pCS4076), ligand present: yes
How it was run: (§2)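 RNA level was computed as RNA reads over DNA reads divided by a spiked-in non-cleaving sequence or by the top sequences, then scaled and log-transformed. Scaling was ×100 with log10, the top group was 25 sequences, and the threshold was ≥100 DNA reads. The reads came from HEK293T cells transfected at 4 µg per 6-well well with ribozyme switch library plasmids (mCherry, or eGFP in some ligand experiments). Total RNA was extracted with EDTA 72 h after transfection, with any ligand added 1 h before it.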

hypoxanthine [3] = variants of: B1; test: normalized RNA/DNA level without ligand (relative to sTRSVctl = 100) (log10 (% of sTRSVctl)); ligand: hypoxanthine (xanthine aptamer); higher = less ribozyme self-cleavage, higher mRNA level; conditions: HEK293T, reporter: mCherry (pCS4076), ligand present: no
How it was run: as §2

hypoxanthine [4] = variants of: B1; test: FACS-Seq fitted mean relative fluorescence mCherry/BFP with ligand (log10 relative fluorescence); ligand: hypoxanthine (xanthine aptamer); ligand concentration (+) FACS-Seq: 5 mM; higher = higher reporter protein expression; conditions: HEK293T, ligand present: yes
How it was run: as §1

GCUGUCACCGGUGUAUUACCCUAGUGGUCGACCGGUCUGAUGAGUCUAGAAACAGACGAAACAGC [AGAAAC] was tested, and the “FACS-Seq fitted mean (log10)” value (hypoxanthine [1]) was 0.541 ± 0.013, the “normalized RNA/DNA level with ligand (log10)” value (hypoxanthine [2]) was 1.93 ± 0.055 and the “normalized RNA/DNA level without ligand (log10)” value (hypoxanthine [3]) was 1.796 ± 0.01. The “FACS-Seq fitted mean (log10)” value (hypoxanthine [4]) was 0.58 ± 0.023.

For GCUGUCACCGGUGUAUUACCCUAGUGGUCGACCGGUCUGAUGAGUCUGGAAAGAGACGAAACAGC [GGAAAG], the “FACS-Seq fitted mean (log10)” value (hypoxanthine [1]) was 0.282 ± 0.038, the “normalized RNA/DNA level with ligand (log10)” value (hypoxanthine [2]) was 1.8 ± 0.018 and the “normalized RNA/DNA level without ligand (log10)” value (hypoxanthine [3]) was 1.34 ± 0.094. The “FACS-Seq fitted mean (log10)” value (hypoxanthine [4]) was 0.711 ± 0.029.

In the case of GCUGUCACCGGUGUAUUACCCUAGUGGUCGACCGGUCUGAUGAGUCUCGAAAUAGACGAAACAGC [CGAAAU], the “FACS-Seq fitted mean (log10)” value (hypoxanthine [1]) is reported as 0.0751 ± 0.04, the “normalized RNA/DNA level with ligand (log10)” value (hypoxanthine [2]) is reported as 1.91 ± 0.049 and the “normalized RNA/DNA level without ligand (log10)” value (hypoxanthine [3]) is reported as 1.73 ± 0.021. For the same variant, the “FACS-Seq fitted mean (log10)” value (hypoxanthine [4]) was 0.0235 ± 0.19.

With GCUGUCACCGGUGUAUUACCCUAGUGGUCGACCGGUCUGAUGAGUCUAGAAAUAGACGAAACAGC [AGAAAU] the “FACS-Seq fitted mean (log10)” value (hypoxanthine [1]) was 0.552 ± 0.024, the “normalized RNA/DNA level with ligand (log10)” value (hypoxanthine [2]) was 1.93 ± 0.036 and the “normalized RNA/DNA level without ligand (log10)” value (hypoxanthine [3]) was 1.83 ± 0.034. The “FACS-Seq fitted mean (log10)” value (hypoxanthine [4]) was 0.414 ± 0.021.

GCUGUCACCGGUGUAUUACCCUAGUGGUCGACCGGUCUGAUGAGUCUUGAACAAGACGAAACAGC [UGAACA] was tested, and the “FACS-Seq fitted mean (log10)” value (hypoxanthine [1]) was 0.901 ± 0.04, the “normalized RNA/DNA level with ligand (log10)” value (hypoxanthine [2]) was 1.955 ± 0.014 and the “normalized RNA/DNA level without ligand (log10)” value (hypoxanthine [3]) was 1.86 ± 0.027. The “FACS-Seq fitted mean (log10)” value (hypoxanthine [4]) was 0.802 ± 0.072.

For GCUGUCACCGGUGUAUUACCCUAGUGGUCGACCGGUCUGAUGAGUCUCGAACCAGACGAAACAGC [CGAACC], the “FACS-Seq fitted mean (log10)” value (hypoxanthine [1]) was 0.676 ± 0.041, the “normalized RNA/DNA level with ligand (log10)” value (hypoxanthine [2]) was 1.94 ± 0.035 and the “normalized RNA/DNA level without ligand (log10)” value (hypoxanthine [3]) was 1.89 ± 0.02. For the same variant, the “FACS-Seq fitted mean (log10)” value (hypoxanthine [4]) was 0.635 ± 0.062.

In the case of GCUGUCACCGGUGUAUUACCCUAGUGGUCGACCGGUCUGAUGAGUCUAGAACCAGACGAAACAGC [AGAACC], the “FACS-Seq fitted mean (log10)” value (hypoxanthine [1]) is reported as 0.228 ± 0.048, the “normalized RNA/DNA level with ligand (log10)” value (hypoxanthine [2]) is reported as 1.937 ± 0.014 and the “normalized RNA/DNA level without ligand (log10)” value (hypoxanthine [3]) is reported as 1.87 ± 0.022. The “FACS-Seq fitted mean (log10)” value (hypoxanthine [4]) was 0.264 ± 0.055.

With GCUGUCACCGGUGUAUUACCCUAGUGGUCGACCGGUCUGAUGAGUCUGGAACGAGACGAAACAGC [GGAACG] the “FACS-Seq fitted mean (log10)” value (hypoxanthine [1]) was 0.254 ± 0.083, the “normalized RNA/DNA level with ligand (log10)” value (hypoxanthine [2]) was 1.88 ± 0.072 and the “normalized RNA/DNA level without ligand (log10)” value (hypoxanthine [3]) was 1.503 ± 0.015. For the same variant, the “FACS-Seq fitted mean (log10)” value (hypoxanthine [4]) was 0.597 ± 0.098.

For GCUGUCACCGGUGUAUUACCCUAGUGGUCGACCGGUCUGAUGAGUCUAGAACGAGACGAAACAGC [AGAACG], the “FACS-Seq fitted mean (log10)” value (hypoxanthine [1]) was 0.48 ± 0.04, the “normalized RNA/DNA level with ligand (log10)” value (hypoxanthine [2]) was 1.833 ± 0.015 and the “normalized RNA/DNA level without ligand (log10)” value (hypoxanthine [3]) was 1.436 ± 0.0026. The “FACS-Seq fitted mean (log10)” value (hypoxanthine [4]) was 0.756 ± 0.08.

In the case of GCUGUCACCGGUGUAUUACCCUAGUGGUCGACCGGUCUGAUGAGUCUUGAACUAGACGAAACAGC [UGAACU], the “FACS-Seq fitted mean (log10)” value (hypoxanthine [1]) is reported as -0.346 ± 0.014, the “normalized RNA/DNA level with ligand (log10)” value (hypoxanthine [2]) is reported as 1.913 ± 0.013 and the “normalized RNA/DNA level without ligand (log10)” value (hypoxanthine [3]) is reported as 1.89 ± 0.0097. The “FACS-Seq fitted mean (log10)” value (hypoxanthine [4]) was 0.000122 ± 0.018.

For GCUGUCACCGGUGUAUUACCCUAGUGGUCGACCGGUCUGAUGAGUCUCGAAGAAGACGAAACAGC [CGAAGA], the “FACS-Seq fitted mean (log10)” value (hypoxanthine [1]) was 0.445 ± 0.018, the “normalized RNA/DNA level with ligand (log10)” value (hypoxanthine [2]) was 1.97 ± 0.061 and the “normalized RNA/DNA level without ligand (log10)” value (hypoxanthine [3]) was 1.72 ± 0.049. The “FACS-Seq fitted mean (log10)” value (hypoxanthine [4]) was 0.65 ± 0.062.

For GCUGUCACCGGUGUAUUACCCUAGUGGUCGACCGGUCUGAUGAGUCUGGAAGAAGACGAAACAGC [GGAAGA], the “FACS-Seq fitted mean (log10)” value (hypoxanthine [1]) was 0.0989 ± 0.032, the “normalized RNA/DNA level with ligand (log10)” value (hypoxanthine [2]) was 1.89 ± 0.045 and the “normalized RNA/DNA level without ligand (log10)” value (hypoxanthine [3]) was 1.45 ± 0.032. The “FACS-Seq fitted mean (log10)” value (hypoxanthine [4]) was 0.576 ± 0.039.

GCUGUCACCGGUGUAUUACCCUAGUGGUCGACCGGUCUGAUGAGUCUUGAAGAAGACGAAACAGC [UGAAGA] was tested, and the “FACS-Seq fitted mean (log10)” value (hypoxanthine [1]) was 0.306 ± 0.01, the “normalized RNA/DNA level with ligand (log10)” value (hypoxanthine [2]) was 1.896 ± 0.015 and the “normalized RNA/DNA level without ligand (log10)” value (hypoxanthine [3]) was 1.55 ± 0.025. For the same variant, the “FACS-Seq fitted mean (log10)” value (hypoxanthine [4]) was 0.576 ± 0.08.

In the case of GCUGUCACCGGUGUAUUACCCUAGUGGUCGACCGGUCUGAUGAGUCUAGAAGAAGACGAAACAGC [AGAAGA], the “FACS-Seq fitted mean (log10)” value (hypoxanthine [1]) is reported as 0.156 ± 0.021, the “normalized RNA/DNA level with ligand (log10)” value (hypoxanthine [2]) is reported as 1.92 ± 0.029 and the “normalized RNA/DNA level without ligand (log10)” value (hypoxanthine [3]) is reported as 1.525 ± 0.013. The “FACS-Seq fitted mean (log10)” value (hypoxanthine [4]) was 0.466 ± 0.016.

For GCUGUCACCGGUGUAUUACCCUAGUGGUCGACCGGUCUGAUGAGUCUGGAAGCAGACGAAACAGC [GGAAGC], the “FACS-Seq fitted mean (log10)” value (hypoxanthine [1]) was 0.167 ± 0.013, the “normalized RNA/DNA level with ligand (log10)” value (hypoxanthine [2]) was 1.77 ± 0.033 and the “normalized RNA/DNA level without ligand (log10)” value (hypoxanthine [3]) was 1.297 ± 0.0033. The “FACS-Seq fitted mean (log10)” value (hypoxanthine [4]) was 0.358 ± 0.042.

GCUGUCACCGGUGUAUUACCCUAGUGGUCGACCGGUCUGAUGAGUCUCGAAGGAGACGAAACAGC [CGAAGG] was tested, and the “FACS-Seq fitted mean (log10)” value (hypoxanthine [1]) was 0.0138 ± 0.042, the “normalized RNA/DNA level with ligand (log10)” value (hypoxanthine [2]) was 1.806 ± 0.015 and the “normalized RNA/DNA level without ligand (log10)” value (hypoxanthine [3]) was 1.4 ± 0.13. For the same variant, the “FACS-Seq fitted mean (log10)” value (hypoxanthine [4]) was 0.39 ± 0.041.

GCUGUCACCGGUGUAUUACCCUAGUGGUCGACCGGUCUGAUGAGUCUGGAAGGAGACGAAACAGC [GGAAGG] was tested, and the “FACS-Seq fitted mean (log10)” value (hypoxanthine [1]) was -0.0545 ± 0.055, the “normalized RNA/DNA level with ligand (log10)” value (hypoxanthine [2]) was 1.81 ± 0.03 and the “normalized RNA/DNA level without ligand (log10)” value (hypoxanthine [3]) was 1.29 ± 0.068. For the same variant, the “FACS-Seq fitted mean (log10)” value (hypoxanthine [4]) was 0.241 ± 0.04.

GCUGUCACCGGUGUAUUACCCUAGUGGUCGACCGGUCUGAUGAGUCUAGAAGGAGACGAAACAGC [AGAAGG] was tested, and the “FACS-Seq fitted mean (log10)” value (hypoxanthine [1]) was 0.227 ± 0.0085, the “normalized RNA/DNA level with ligand (log10)” value (hypoxanthine [2]) was 1.85 ± 0.051 and the “normalized RNA/DNA level without ligand (log10)” value (hypoxanthine [3]) was 1.42 ± 0.044. For the same variant, the “FACS-Seq fitted mean (log10)” value (hypoxanthine [4]) was 0.463 ± 0.011.

For GCUGUCACCGGUGUAUUACCCUAGUGGUCGACCGGUCUGAUGAGUCUUGAAGUAGACGAAACAGC [UGAAGU], the “FACS-Seq fitted mean (log10)” value (hypoxanthine [1]) was 0.226 ± 0.04, the “normalized RNA/DNA level with ligand (log10)” value (hypoxanthine [2]) was 1.87 ± 0.037 and the “normalized RNA/DNA level without ligand (log10)” value (hypoxanthine [3]) was 1.555 ± 0.012. The “FACS-Seq fitted mean (log10)” value (hypoxanthine [4]) was 0.496 ± 0.012.

GCUGUCACCGGUGUAUUACCCUAGUGGUCGACCGGUCUGAUGAGUCUCGAAUAAGACGAAACAGC [CGAAUA] was tested, and the “FACS-Seq fitted mean (log10)” value (hypoxanthine [1]) was 0.459 ± 0.085, the “normalized RNA/DNA level with ligand (log10)” value (hypoxanthine [2]) was 1.9 ± 0.037 and the “normalized RNA/DNA level without ligand (log10)” value (hypoxanthine [3]) was 1.677 ± 0.0017. For the same variant, the “FACS-Seq fitted mean (log10)” value (hypoxanthine [4]) was 0.656 ± 0.027.

In the case of GCUGUCACCGGUGUAUUACCCUAGUGGUCGACCGGUCUGAUGAGUCUGGAAUAAGACGAAACAGC [GGAAUA], the “FACS-Seq fitted mean (log10)” value (hypoxanthine [1]) is reported as 0.68 ± 0.044, the “normalized RNA/DNA level with ligand (log10)” value (hypoxanthine [2]) is reported as 1.9527 ± 0.00026 and the “normalized RNA/DNA level without ligand (log10)” value (hypoxanthine [3]) is reported as 1.78 ± 0.028. The “FACS-Seq fitted mean (log10)” value (hypoxanthine [4]) was 0.588 ± 0.045.
